This note sets out measurements from article PMC3182920.

The target in experiment [1] is human nectin-1 ectodomain, nectin-1(346t) (human) (UniProt Q15223). Description: SEC-MALS; SEC combined with multi-angle light scattering, purified proteins in solution; data not shown. Background: Size exclusion chromatography separates by hydrodynamic size, large species first.
In experiment [2] the target is HSV-1 glycoprotein D ectodomain truncated at residue 306 (gD306t). As to the kind of experiment: ELISA. The following applies: read at the highest gD(306t) concentration, about 300 µg/ml; N1V-MBP immobilized; parent: est. 1.5; read off a plot.
A further experiment addresses MAb CK41. Description: ELISA. The following applies: sub-panel CK41 (conf); immobilized antibody captures N1V-MBP; detection with anti-MBP-HRP; parent: est. 100; read off a plot. Background: ELISA stands for enzyme-linked immunosorbent assay.
A further experiment deals with anti-nectin-1 Ig CK6. As to the kind of experiment: ELISA. As to conditions: sub-panel CK6 (80-105); immobilized antibody captures N1V-MBP; detection with anti-MBP-HRP; parent: est. 100; read off a plot.
The target in experiment [3] is T1, human nectin-1 ectodomain, nectin-1(346t) (human), Q15223.
T1 chain: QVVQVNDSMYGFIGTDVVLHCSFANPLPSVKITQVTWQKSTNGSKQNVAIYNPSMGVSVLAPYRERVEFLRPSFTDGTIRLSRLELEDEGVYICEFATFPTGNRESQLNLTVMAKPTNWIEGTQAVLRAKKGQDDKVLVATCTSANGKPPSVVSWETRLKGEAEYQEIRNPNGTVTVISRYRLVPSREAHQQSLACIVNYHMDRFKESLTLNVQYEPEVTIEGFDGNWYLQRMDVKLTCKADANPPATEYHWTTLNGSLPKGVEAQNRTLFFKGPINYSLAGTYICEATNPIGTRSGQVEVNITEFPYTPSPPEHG
Description: SEC-MALS; SEC combined with multi-angle light scattering, purified proteins in solution; data not shown. The following applies: remark: other sources report otherwise.

Consider “HSV-1 KOS glycoprotein D ectodomain truncated at residue 285 (gD285t) (domain or fragment)”, for which, in experiment [1], the stoichiometry N (as a rule, a count of units in the complex or per binding partner) amounted to 1.

In the case of “nectin-1 V-domain fused to maltose binding protein (N1V-MBP), wild type (from UniProt Q15223-1) F129S”, the response in experiment [2] is 0.2 OD405nm. Further, the percent of parent (% wt detection) with MAb CK41 came to 7; with anti-nectin-1 Ig CK6, 93.

In the case of “nectin-1 V-domain fused to maltose binding protein (N1V-MBP), wild type (from UniProt Q15223-1) F129W”, the response in experiment [2] is 1.3 OD405nm. Also, the percent of parent (% wt detection) with MAb CK41 turned out to be 55; in the experiment with anti-nectin-1 Ig CK6, 91.

Turning to “nectin-1 V-domain fused to maltose binding protein (N1V-MBP), wild type (from UniProt Q15223-1) N82Y”, the response in experiment [2] is 0.12 OD405nm. For the same molecule, the percent of parent (% wt detection) in the experiment with anti-nectin-1 Ig CK6 came out at 68.

For “nectin-1 V-domain fused to maltose binding protein (N1V-MBP), wild type (from UniProt Q15223-1) S84R”, the response in experiment [2] came out at 1.3 OD405nm. Moreover, the values for the percent of parent (% wt detection) with MAb CK41 and in the experiment with anti-nectin-1 Ig CK6 were 120 and 90, respectively.

As for “nectin-1 V-domain fused to maltose binding protein (N1V-MBP), wild type (from UniProt Q15223-1) S84Y”, the response in experiment [2] worked out at 0.55 OD405nm. Further, the percent of parent (% wt detection) stood at 31 in the experiment with MAb CK41 and 80 with anti-nectin-1 Ig CK6.

As to “nectin-1 V-domain fused to maltose binding protein (N1V-MBP), wild type (from UniProt Q15223-1) T66Q”, in experiment [2], the response stood at 1.4 OD405nm. In addition, the percent of parent (% wt detection) with MAb CK41 was 71; in the experiment with anti-nectin-1 Ig CK6, 110.

B1: human nectin-1 ectodomain, nectin-1(346t), Q15223-1 31-346 (receptor)
chain: QVVQVNDSMYGFIGTDVVLHCSFANPLPSVKITQVTWQKSTNGSKQNVAIYNPSMGVSVLAPYRERVEFLRPSFTDGTIRLSRLELEDEGVYICEFATFPTGNRESQLNLTVMAKPTNWIEGTQAVLRAKKGQDDKVLVATCTSANGKPPSVVSWETRLKGEAEYQEIRNPNGTVTVISRYRLVPSREAHQQSLACIVNYHMDRFKESLTLNVQYEPEVTIEGFDGNWYLQRMDVKLTCKADANPPATEYHWTTLNGSLPKGVEAQNRTLFFKGPINYSLAGTYICEATNPIGTRSGQVEVNITEFPYTPSPPEHG
For B1, the stoichiometry N in experiment [3] amounted to 2.
